Laboratory results as given in US20070128190A1 (GLENMARK PHARMACEUTICALS S A, published 2007).

T1: GST-human α2 I domain fusion protein (human, UniProt P17301 153-368)
T1 construct: the reverse primer ends at ...SIEGTV; also called GST-α2 I domain; hα2I; not shown: glutathione S-transferase tag encoded by vector pGEX-2TK
T1 sequence: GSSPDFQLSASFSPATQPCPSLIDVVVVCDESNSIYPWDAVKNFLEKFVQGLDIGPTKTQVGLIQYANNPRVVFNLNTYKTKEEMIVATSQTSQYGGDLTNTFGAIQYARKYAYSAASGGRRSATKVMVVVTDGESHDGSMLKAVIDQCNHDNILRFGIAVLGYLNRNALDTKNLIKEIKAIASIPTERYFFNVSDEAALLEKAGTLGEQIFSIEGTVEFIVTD

B1: TMC-2206 (antibody, mouse IgG1, V domains shown)
VH: QVQLKESGPGLVAPSQSLSITCTVSGFSLTNYGIHWVRQPPGKGLEWLGVIWARGFTNYNSALMSRLIITKDNSQSQVFLKMNSLQPDDSATYFCARANDGVYYAMDYWGQGTSVTVSS
VL: QFVLTQSPAFLSASPGEKVTMTCSANSSVNYIHWYQQKSGTSPKKWIYDTSKLASGVPVRFSGSGSGTSYSLTISSMETEDAATYYCQQWTTNPLTFGAGTRVELK
notes: murine IgG1/κ secreted by hybridoma BHA2.1; labelled with Eu-N1-ITC where used as tracer; also called BHA2.1
B2: Humanized TMC-2206 (hIgG4/κ VH12.0/VL10.0Q) (antibody)
heavy: not shown
light: DFVMTQSPAFLSVTPGEKVTITCSAQSSVNYIHWYQQKPDQAPKKLIYDTSKLASGVPSRFSGSGSGTDYTFTISSLEAEDAATYYCQQWTTNPLTFGQGTKVEIKRTVAAPSVFIFPPSDEQLKSGTASVVCLLNNFYPREAKVQWKVDNALQSGNSQESVTEQDSKDSTYSLSSTLTLSKADYEKHKVYACEVTHQGLSSPVTKSFNRGEC
notes: labelled with Eu or Alexa-488 in some assays

Assays:
[1] = molecular target: T1, GST-human α2 I domain fusion protein; experiment: SPR (Biacore 2000), antibody captured, GST-α2 I domain in solution
[2] = molecular target: T2, human platelet α2β1 integrin (immobilized on microtiter plates) (human, UniProt P17301 30-1181; P05556 21-798); experiment: equilibrium binding of Eu-labelled antibody to human platelet α2β1-coated plate, Scatchard
T2 construct: plates custom-coated with human platelet α2β1 by GTI Inc; also called immobilized α2β1 integrin; α2β1-coated plates
Protocol: Wells in a 96-well microtiter plate were coated with platelet α2β1-integrin (custom-coated with human platelet α2β1 by GTI Inc., WI) and then blocked with nonfat milk. […] After concentration in prewashed MicroSep concentrators [30-kDa cutoff; Pall Life Sciences at 9500 rpm (7000×g) in a JA-20 rotor (Beckman Instruments, Inc.] for 20 minutes at 4° C.), the antibody was adjusted to 4.0 mg/mL with PBS, 100 mM NaHCO₃, pH 9.3. The MAb/bicarbonate mixture (0.250 mL) was gently mixed into a vial containing 0.2 mg N¹-(p-isothiocyanatobenzyl)-diethylenetriamine-N¹,N²,N³,N³-tetraacetic acid chelated with Eu³⁺ (Eu-N1-ITC; Perkin Elmer Life Sciences) and incubated overnight at 4° C. without stirring. The labeled antibody mixture was applied to a PD-10 column (GE Biosciences, Piscataway, N.J.) pre-equilibrated with Running Buffer (50 mM Tris, pH 7.4 and 138 mM NaCl). Fractions (0.5 mL) were collected and assayed for total protein (Bradford reagent; Bio-Rad Laboratories, Hercules, Calif.) using a SpectraMax 384 absorbance plate reader and for europium after 1:10.000 dilution in DELFIA Enhancement Solution (Perkin-Elmer) by time-resolved fluorescence (TRF) using a Victor2 multi-label plate reader (Perkin Elmer). […]

[3] = molecular target: human α2β1 integrin on human cells (platelets, leukocytes, HT1080) (human, UniProt P17301 30-1181; P05556 21-798); experiment: cell-based or functional assay
[4] = molecular target: T2, human platelet α2β1 integrin …; experiment: competition with Eu-humanized TMC-2206 on α2β1-coated plates
From the text: The inhibition curves were fitted with the “one site competition” model using Prism software (GraphPad, Inc.) to obtain IC₅₀ values and to calculate the Kᵢ using the equation of Cheng and Prusoff (1973) and the respective values for KD from above.
The cloning of the human, rhesus macaque, rat, and mouse α2 I domains were described in Example 12. Cynomolgus and additional rhesus monkey α2 I domains were cloned from cDNA derived from total RNA extracted from skin tissue (MediCorp, Inc., Montreal, QC).

[5] = molecular target: T2, human platelet α2β1 integrin …; experiment: competition with Eu-humanized TMC-2206 on human platelet α2β1-coated plate
Protocol: The MAb/bicarbonate mixture (0.250 mL) was gently mixed into a vial containing 0.2 mg N¹-(p-isothiocyanatobenzyl)-diethylenetriamine-N¹,N²,N³,N³-tetraacetic acid chelated with Eu³⁺ (Eu-N1-ITC; Perkin Elmer Life Sciences) and incubated overnight at 4° C. without stirring. The labeled antibody mixture was applied to a PD-10 column (GE Biosciences, Piscataway, N.J.) pre-equilibrated with Running Buffer (50 mM Tris, pH 7.4 and 138 mM NaCl). Fractions (0.5 mL) were collected and assayed for total protein (Bradford reagent; Bio-Rad Laboratories, Hercules, Calif.) using a SpectraMax 384 absorbance plate reader and for europium after 1:10.000 dilution in DELFIA Enhancement Solution (Perkin-Elmer) by time-resolved fluorescence (TRF) using a Victor2 multi-label plate reader (Perkin Elmer). The fractions that were positive for both protein and europium label were pooled, applied to a new PD-10 column, and samples collected and assayed for total protein and for europium content by TRF calibrated against a europium standard solution (Perkin-Elmer) to calculate the fluor : protein ratio. […] The plate was shaken (Titer Plate Shaker, speed setting of 5, 5 minutes at room temperature) and TRF intensities were read using the Victor2 multi-label plate reader. The KD values were calculated by Scatchard analyses.

[6] = molecular target: T2, human platelet α2β1 integrin …; experiment: competition with Eu-TMC-2206 on human platelet α2β1-coated plate
Protocol: Exemplary IgG1 antibodies have a hVH 14.0 γ heavy chain (SEQ ID NO:181) or a hVH12.0 γ1 heavy chain (SEQ ID NO:182) and a hVL10.0Q light chain (SEQ ID NO:178). Exemplary IgG4 antibodies have a hVH14.0 γ4 heavy chain (SEQ ID NO:174) or a hVH12.0 γ4 heavy chain (SEQ ID NO:176) and a hVL 10.0Q light chain (SEQ ID NO:178). Purified antibodies were tested in the competition assay to compare potency by Kᵢ values as well as in the cell adhesion to collagen assay, where potency is measured as EC₅₀ values.

[7] = molecular target: T3, GST (UniProt P08515 1-218 = GST); experiment: GST competing Eu-humanized TMC-2206 off α2β1-coated plate
T3 construct: also called GST fusion protein (negative control)

Binder	Kd [1] [nM]	koff [1] [s⁻¹]	kon [1] [M⁻¹ s⁻¹]	Kd [2] [nM]	EC50 (nm), human platelets on human placenta Type I collagen (n = 1) [3] [nM]	Ki [4] [nM]	Ki [5] [nM]	Ki [6] [nM]	binding result [7]
B1	2.9	0.0011	380000	0.72	8.44	0.14	0.21	0.22	–
B2	2.3	0.00082	350000	1.29	13.1	0.34	0.41	0.27	no binding (tested: 0.4 µM)
